What was measured:
[1] = biological target: vasopressin (V1a) receptor of PC3 cells (UniProt P37288); test: Scatchard analysis, PC3 cells, 37C
[2] = biological target: vasopressin (V1a) receptor of PC3 cells (UniProt P37288); test: 125I-ligand binding to PC3 cells, 37C
[3] = biological target: vasopressin (V1a) receptor of PC3 cells (UniProt P37288); test: 125I-ligand binding to PC3 cells; with 60 µM SKF-96365
[4] = biological target: vasopressin (V1a) receptor of PC3 cells (UniProt P37288); test: 125I-ligand binding to PC3 cells, 37C; with 12 µM MK886
[5] = biological target: vasopressin (V1a) receptor of PC3 cells (UniProt P37288); test: 125I-ligand binding to PC3 cells, 37C; with 12 µM NDGA
[6] = biological target: vasopressin (V1a) receptor of PC3 cells (UniProt P37288); test: 125I-ligand binding to PC3 cells; with 12 µM phloretin
[7] = biological target: vasopressin (V1a) receptor of PC3 cells (UniProt P37288); test: 125I-HOLVA binding to PC3 cell membranes; with 60 µM verapamil
[8] = biological target: vasopressin (V1a) receptor of PC3 cells (UniProt P37288); test: 125I-HOLVA binding to PC3 cell membranes; with 60 µM SKF-96365
[9] = biological target: vasopressin (V1a) receptor of PC3 cells (UniProt P37288); test: 125I-ligand binding to PC3 cells, 37C; with 60 µM AA-861
[10] = biological target: vasopressin (V1a) receptor of PC3 cells (UniProt P37288); test: 125I-ligand binding to PC3 cells, 37C; with 12 µM AA-861
[11] = biological target: vasopressin (V1a) receptor of PC3 cells (UniProt P37288); test: 125I-ligand binding to PC3 cells, 37C; with 60 µM MK886
[12] = biological target: vasopressin (V1a) receptor of PC3 cells (UniProt P37288); test: 125I-ligand binding to PC3 cells; with 12 µM SKF-96365
[13] = biological target: vasopressin (V1a) receptor of PC3 cells (UniProt P37288); test: 125I-ligand binding to PC3 cells; with 60 µM verapamil
[14] = biological target: vasopressin (V1a) receptor of PC3 cells (UniProt P37288); test: 125I-ligand binding to PC3 cells; with 60 µM phloretin
[15] = biological target: vasopressin (V1a) receptor of PC3 cells (UniProt P37288); test: 125I-ligand binding to PC3 cells, 37C; with 60 µM NDGA
[16] = biological target: vasopressin (V1a) receptor of PC3 cells (UniProt P37288); test: 125I-ligand binding to PC3 cells; with 12 µM NIF
[17] = biological target: vasopressin (V1a) receptor of PC3 cells (UniProt P37288); test: 125I-ligand binding to PC3 cells, 37C; with 12 µM Rev-5901
[18] = biological target: vasopressin (V1a) receptor of PC3 cells (UniProt P37288); test: 125I-HOLVA binding to PC3 cell membranes; with 60 µM NIF
[19] = biological target: vasopressin (V1a) receptor of PC3 cells (UniProt P37288); test: 125I-ligand binding to PC3 cells, 37C; with 60 µM Rev-5901
[20] = biological target: vasopressin (V1a) receptor of PC3 cells (UniProt P37288); test: 125I-ligand binding to PC3 cells; with 60 µM NIF
[21] = biological target: vasopressin (V1a) receptor of PC3 cells (UniProt P37288); test: displacement of 125I-ligand by unlabeled ligand, PC3 cells, 37C
[22] = biological target: vasopressin (V1a) receptor of PC3 cells (UniProt P37288); test: 125I-ligand binding to PC3 cells; with 12 µM verapamil
[23] = biological target: bombesin receptor of PC3 cells; test: Scatchard analysis, PC3 cells, 37C
[24] = biological target: bombesin receptor of PC3 cells; test: 125I-ligand binding to PC3 cells, 37C
[25] = biological target: bombesin receptor of PC3 cells; test: 125I-ligand binding to PC3 cells; with 60 µM SKF-96365
[26] = biological target: bombesin receptor of PC3 cells; test: 125I-ligand binding to PC3 cells, 37C; with 12 µM MK886
[27] = biological target: bombesin receptor of PC3 cells; test: 125I-ligand binding to PC3 cells, 37C; with 12 µM NDGA
[28] = biological target: bombesin receptor of PC3 cells; test: 125I-ligand binding to PC3 cells; with 12 µM phloretin
[29] = biological target: bombesin receptor of PC3 cells; test: 125I-ligand binding to PC3 cells, 37C; with 60 µM AA-861
[30] = biological target: bombesin receptor of PC3 cells; test: 125I-ligand binding to PC3 cells, 37C; with 12 µM AA-861
[31] = biological target: bombesin receptor of PC3 cells; test: 125I-ligand binding to PC3 cells, 37C; with 60 µM MK886
[32] = biological target: bombesin receptor of PC3 cells; test: 125I-ligand binding to PC3 cells; with 12 µM SKF-96365
[33] = biological target: bombesin receptor of PC3 cells; test: 125I-ligand binding to PC3 cells; with 60 µM verapamil
[34] = biological target: bombesin receptor of PC3 cells; test: 125I-ligand binding to PC3 cells; with 60 µM phloretin
[35] = biological target: bombesin receptor of PC3 cells; test: 125I-ligand binding to PC3 cells, 37C; with 60 µM NDGA
[36] = biological target: bombesin receptor of PC3 cells; test: 125I-ligand binding to PC3 cells; with 12 µM NIF
[37] = biological target: bombesin receptor of PC3 cells; test: 125I-ligand binding to PC3 cells, 37C; with 12 µM Rev-5901
[38] = biological target: bombesin receptor of PC3 cells; test: 125I-ligand binding to PC3 cells, 37C; with 60 µM Rev-5901
[39] = biological target: bombesin receptor of PC3 cells; test: 125I-ligand binding to PC3 cells; with 60 µM NIF
[40] = biological target: bombesin receptor of PC3 cells; test: displacement of 125I-ligand by unlabeled ligand, PC3 cells, 37C
[41] = biological target: bombesin receptor of PC3 cells; test: 125I-ligand binding to PC3 cells; with 12 µM verapamil
[42] = biological target: T1, neurotensin receptor 1 (NTR1) of PC3 cells (UniProt P30989 1-418, limits assumed); test: UV crosslinking on PC3 cells, immunoprecipitated NTR1; with NIF against control
T1 construct: whole, on cells; its antiserum peptide is from human NTR1; Some assays used isolated PC3 cell membranes or detergent or SDS extracts instead of live cells (see the assay field); also called NT receptor

[43] = biological target: T1, neurotensin receptor 1 (NTR1) of PC3 …; test: UV crosslinking on PC3 cells, immunoprecipitated NTR1; with phloretin against control
[44] = biological target: T1, neurotensin receptor 1 (NTR1) of PC3 …; test: UV crosslinking on PC3 cells, immunoprecipitated NTR1; with 50 µM NDGA
[45] = biological target: T1, neurotensin receptor 1 (NTR1) of PC3 …; test: UV crosslinking on PC3 cells, immunoprecipitated NTR1; with verapamil against control
[46] = biological target: T1, neurotensin receptor 1 (NTR1) of PC3 …; test: UV crosslinking on PC3 cells, immunoprecipitated NTR1; with 50 µM MK886

vasopressin (V1a) receptor of PC3 cells, sequence (P37288 whole entry): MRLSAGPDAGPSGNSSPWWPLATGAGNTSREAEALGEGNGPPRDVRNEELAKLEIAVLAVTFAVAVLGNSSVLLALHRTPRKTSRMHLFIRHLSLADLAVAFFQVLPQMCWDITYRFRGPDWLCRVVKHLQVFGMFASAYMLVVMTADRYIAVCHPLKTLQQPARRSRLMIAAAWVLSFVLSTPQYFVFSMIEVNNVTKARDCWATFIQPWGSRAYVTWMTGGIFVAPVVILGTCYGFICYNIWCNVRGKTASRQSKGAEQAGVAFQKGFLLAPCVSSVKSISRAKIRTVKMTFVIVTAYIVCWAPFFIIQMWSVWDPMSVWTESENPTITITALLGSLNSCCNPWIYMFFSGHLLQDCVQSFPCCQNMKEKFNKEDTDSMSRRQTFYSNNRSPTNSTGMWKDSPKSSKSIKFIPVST
bombesin receptor of PC3 cells, sequence (P30550 whole entry): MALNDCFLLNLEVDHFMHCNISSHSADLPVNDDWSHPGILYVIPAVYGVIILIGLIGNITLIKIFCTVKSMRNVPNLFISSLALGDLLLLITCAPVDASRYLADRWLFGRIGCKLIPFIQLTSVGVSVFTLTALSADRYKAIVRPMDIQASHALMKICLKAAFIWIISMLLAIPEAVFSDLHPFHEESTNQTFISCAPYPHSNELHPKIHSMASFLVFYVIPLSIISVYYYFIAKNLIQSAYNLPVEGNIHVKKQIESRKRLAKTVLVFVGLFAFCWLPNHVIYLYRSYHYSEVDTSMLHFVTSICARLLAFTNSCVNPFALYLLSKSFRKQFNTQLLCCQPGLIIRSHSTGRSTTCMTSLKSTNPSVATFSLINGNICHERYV
T1 sequence (P30989 whole entry): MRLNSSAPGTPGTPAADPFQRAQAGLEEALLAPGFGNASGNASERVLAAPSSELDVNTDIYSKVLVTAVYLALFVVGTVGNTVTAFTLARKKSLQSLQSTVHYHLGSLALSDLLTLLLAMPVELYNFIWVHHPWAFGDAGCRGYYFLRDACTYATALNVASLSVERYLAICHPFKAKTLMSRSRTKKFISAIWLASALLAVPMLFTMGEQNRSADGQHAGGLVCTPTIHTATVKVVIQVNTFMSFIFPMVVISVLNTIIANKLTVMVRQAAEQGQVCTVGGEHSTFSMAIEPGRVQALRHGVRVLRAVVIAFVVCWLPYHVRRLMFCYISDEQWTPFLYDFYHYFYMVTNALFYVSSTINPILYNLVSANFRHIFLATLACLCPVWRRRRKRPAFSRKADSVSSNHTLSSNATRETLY

In the case of “des-Gly-[Phaal, D-Tyr(Et)2, Lys6, Arg8]-vasopressin (HOLVA) (peptide)”, the Bmax [1] is reported as 156 fmol/mg, the Specific Binding (% of total) [2] is reported as 77 % of total and the Specific Binding (% control) [3] is reported as 50 % control. It also gave a Specific Binding (% control) [4] of 93 % control, a Specific Binding (% control) [5] of 84 % control and a Specific Binding (% control) [6] of 92 % control. For the same molecule, the Binding (% control) [7] was 91 % control, the Binding (% control) [8] was 110 % control and the Specific Binding (% control) [9] was 57 % control. The Specific Binding (% control) [10] was 87 % control, the Specific Binding (% control) [11] was 67 % control and the Specific Binding (% control) [12] was 80 % control. It also gave a Specific Binding (% control) [13] of 58 % control, a Specific Binding (% control) [14] of 73 % control and a Specific Binding (% control) [15] of 50 % control. For the same molecule, the Specific Binding (% control) [16] was 95 % control, the Specific Binding (% control) [17] was 68 % control and the Binding (% control) [18] was 90 % control. It also gave a Specific Binding (% control) [19] of 42 % control, a Specific Binding (% control) [20] of 59 % control and a Ki [21] of 0.5 nM. For the same molecule, the Specific Binding (% control) [22] was 85 % control.

For (Tyr 4, Nle 14)-bombesin (peptide), the Bmax [23] was 1020 fmol/mg, the Specific Binding (% of total) [24] was 95 % of total and the Specific Binding (% control) [25] was 106 % control. For the same molecule, the Specific Binding (% control) [26] was 106 % control, the Specific Binding (% control) [27] was 110 % control and the Specific Binding (% control) [28] was 104 % control. For the same molecule, the Specific Binding (% control) [29] was 135 % control, the Specific Binding (% control) [30] was 112 % control and the Specific Binding (% control) [31] was 125 % control. It also gave a Specific Binding (% control) [32] of 99 % control, a Specific Binding (% control) [33] of 104 % control and a Specific Binding (% control) [34] of 111 % control. The Specific Binding (% control) [35] was 127 % control, the Specific Binding (% control) [36] was 108 % control and the Specific Binding (% control) [37] was 107 % control. It also gave a Specific Binding (% control) [38] of 119 % control, a Specific Binding (% control) [39] of 119 % control and a Ki [40] of 0.6 nM. It also gave a Specific Binding (% control) [41] of 104 % control.

B1: ^125I-[4-azido-Phe^6]-NT (peptide)
peptide: ELYENFPRRPYIL
modifications: 4-azido-Phe at position 6; pGlu at position 1; 125I iodinated
notes: the residue at 6 is 4-azido-phenylalanine
B1 was tested, and the “fold increase in radioactivity associated with NTR1” value (shortened to “fold increase”) [42] was 2.8 fold, the “fold increase” value [43] was 1.8 fold and the “fold increase” value [44] was 2.6 fold. The “fold increase” value [45] was 1.5 fold and the “fold increase” value [46] was 2.7 fold.

Reference: patent publication US20090203048A1 (UNIVERSITY OF MASSACHUSETTS, published 2009)
